The format of data set [1] is biochemical. How it is done:
(§1) The activity on the galacto-oligosaccharide substrates prepared as described above and on the commercially available galactobiose (Gal2, Megazyme) was studied for the four purified galactanases HIGAL, MTGAL, AAGAL and BLGAL. The buffers and temperatures used were: 25 mM sodium acetate, 0.5 mM CaCl2, 0.005% Triton X-100, pH 6.5 at 37° C. for HIGAL and MTGAL, 50 mM sodium acetate, 1 mM CaCl2, pH 4 at 30° C. for AAGAL and 50 mM Mes, 1 mM CaCl2, pH 6.5 at 30° C. for BLGAL. Enzyme concentrations used were 0.8 μg/ml for HIGAL, 0.2 microgram/ml for MTGAL, and 10 micrograms/ml for AAGAL and BLGAL. With HIGAL and MTGAL substrate concentrations were all 0.25 mg/ml, whereas 0.34 mg/ml Gal2, 0.050 mg/ml Gal3 and 0.067 mg/ml Gal4 were used for AAGAL and BLGAL. Enzyme activity in samples withdrawn after various incubation times was inactivated by heating to 95° C. for 10 min. Compositions of reaction products were analysed using HPAE-PAD (Dionex) applying a PA-100 column and a linear gradient of sodium acetate (0-0.18 M) in 0.15 M NaOH. Response factors of the individual carbohydrates were estimated from reference runs with MeGal3, MeGal4, Gal, Gal2, Gal3 and Gal4. Selected results are shown in Tables 2-8 below (the figures indicating weight percentage of glactooligosaccharides).

Data set [2] can be described thus: Degradation of MeGal4, products by HPAE-PAD. It counts as biochemical. The settings on record: in words; buffer, pH and temperature per enzyme. How it is done:
as §1

A short description of data set [3]: Activity on galactobiose (Gal2). It counts as biochemical. Particulars: in 24 hours; buffer, pH and temperature per enzyme. How it is done:
as §1

Data set [4] in a line: Activity on galactotriose (Gal3). It counts as biochemical. Particulars: up to 24 hours; buffer, pH and temperature per enzyme. How it is done:
as §1

The nature of data set [5]: Activity on galactan, products by HPAEC-PAD. It counts as biochemical. The settings on record: 30° C.; BLGAL pH 6.5, AAGAL pH 4.0. How it is done: Lupin galactan (Megazyme) was incubated with BLGAL (0.1-10 micrograms/ml) at pH 6.5 (50 mM MES, 1 mM CaCl2) and with AAGAL (0.1-10 μg/ml) at pH 4.0 (50 mM sodium acetate, 1 mM CaCl2) at 30° C. Samples were withdrawn after 45 min to 24 hours and enzyme inactivated by heating to 95° C. for 10 min. Reaction products were analyzed using HPAEC-PAD on a Dionex chromatographic system using a CarboPac PA-100 column and a linear gradient 0 to 0.3 M sodium acetate in 0.15 M NaOH. Purified galacto-oligosaccharides were used to identify products.

Data set [6] in a line: pH profile of galactanase activity on lupin AZCL-galactan. It counts as biochemical. The settings on record: 15 min at 37° C., A590, unit assumed. How it is done:
The pH profiles of the purified variants described above were established as follows: Galactanase activity at various pH was measured by mixing 500 μl 4 mg/ml lupin AZCL-galactan (Megazyme, Australia) in water with 500 μl buffer (50 mM sodium acetate, 50 mM potassium dihydrogenphosphate, 50 mM boric acid, 1 mM CaCl2, 0.01% Triton X-100 adjusted to pH 2.5, 3.5, 4.5, 5.5, 6.5, 7.5, 8.5 or 9.5 with HCl/NaOH) and 25 μl purified enzyme diluted to about 0.5-2 μg/ml in water. The mixture was incubated 15 min at 37° C., insoluble material was removed by centrifugation, and absorbance in the supernatant was measured at 590 nm.

B1: BLGAL: GH Family 53 galactanase from Bacillus licheniformis, SEQ ID NO: 4 (wild type parent) (protein, listed as Bacillus licheniformis)
chain: AHRDSGTAKSGLYVEKVSGLRKDFIKGVDVSSIIALEESGVAFYNESGKKQDIFNTLKEAGVNYVRVRIWNDPYDANGNGYGGGNNDLEKAIQIGKRANANGMKLLADFHYSDFWADPAKQKAPKAWANLNFEDKKTALYQYTKQSLKAMKAAGIDIGMVQVGNETNGGLAGETDWAKMSQLFNAGSQAVRETDSNILVALHFTNPETSGRYAWIAETLHRHHVDYDVFASSYYPFWHGTLKNLTSVLTSVADTYGKKVMVAETSYTYTAEDGDGHGNTAPKNGQTLNNPVTVQGQANAVRDVIQAVSDVGEAGIGVFYWEPAWIPVGPAHRLEKNKALWETYGSGWATSYAAEYDPEDAGKWFGGSAVDNQALFDFKGRPLPSLHVFQYVDTGTPFKN
Consider B1, for which the “Products of Gal4 (galactotetraose) degradation” value in data set [1] is “degrades galactotetraose mainly to galactose and galactotriose”. Further, the “Products from MeGal4” value in data set [2] was “MeGal and Gal3”. Moreover, the “Activity on Gal2” value in data set [3] is reported as “Neither of the enzymes HIGAL, MTGAL, AAGAL or BLGAL had any detectable activity”. Besides, the “Activity on Gal3, products” value in data set [4] is given as “no visible activity on Gal3 after 24 hours”. The “Initial products from lupin galactan” value in data set [5] was “initial main product is galactotetraose with both smaller and larger oligomers also present”.

B2: AAGAL: GH Family 53 galactanase from Aspergillus aculeatus, SEQ ID NO: 3 (wild type parent) (protein, listed as Aspergillus aculeatus)
chain: ALTYRGADISSLLLLEDEGYSYKNLNGQTQALETILADAGINSIRQRVWVNPSDGSYDLDYNLELAKRVKAAGMSLYLDLHLSDTWADPSDQTTPSGWSTTDLGTLKWQLYNYTLEVCNTFAENDIDIEIISIGNEIRAGLLWPLGETSSYSNIGALLHSGAWGVKDSNLATTPKIMIHLDDGWSWDQQNYFYETVLATGELLSTDFDYFGVSYYPFYSASATLASLKTSLANLQSTYDKPVVVVETNWPVSCPNPAYAFPSDLSSIPFSVAGQQEFLEKLAAVVEATTDGLGVYYWEPAWIGNAGLGSSCADNLMVDYTTDEVYESIETLGEL
modifications: mat_peptide (1)..()
For the molecule B2, the Galactanase activity at pH 2.5 in data set [6] (pH 2.5) amounted to 73%. The molecule further returned a Galactanase activity at pH 3.5 in data set [6] (pH 3.5) of 100%. Moreover, in data set [6] (pH 4.5), the Galactanase activity at pH 4.5 worked out at 83%. The Galactanase activity at pH 5.5 in data set [6] (pH 5.5) came to 47%. The same molecule registered a Galactanase activity at pH 6.5 in data set [6] (pH 6.5) of 32%. For the same molecule, in data set [6] (pH 7.5), the Galactanase activity at pH 7.5 is 0%. In addition, in data set [6] (pH 8.5), the Galactanase activity at pH 8.5 was 2%. The same molecule came in with a Galactanase activity at pH 9.5 in data set [6] (pH 9.5) of 0%. Further, the “Products of Gal4 (galactotetraose) degradation” value in data set [1] was “about equimolar amounts of galactose, galactobiose and galactotriose”. The “Activity on Gal2” value in data set [3] is “Neither of the enzymes HIGAL, MTGAL, AAGAL or BLGAL had any detectable activity”. In addition, the “Activity on Gal3, products” value in data set [4] is “degraded Gal3 to Gal2 and Gal”. The “Initial products from lupin galactan” value in data set [5] is “initially produces a more homogeneous mixture of galactooligomers”.

These data come from patent publication US8367390B2, “Galactanase variants” (Novozymes A/S, priority 2002, dated 2013).
